Here are results for six substances from US20100009896A1.

For assay [1], the target named is Carbonic anhydrase II (bCAII), from bovine erythrocytes (bovine) (UniProt P00921). Nature of the assay: SPR Biacore T100; bCAII immobilised on CM5.
Assay [2] shares this target. The assay can be described thus: SPR Biacore T100; bCAII immobilised on CM5, biligand as analyte 2 nM-5 µM, 1:1 fit.
Assay [3] has the same target. Nature of the assay: SPR KD of the biligand against fluorescence polarization KD of the anchor ligand.
The target is the same in assay [4]. Nature of the assay: SPR KD of the biligands against fluorescence polarization KD of the anchor ligand.
Assay [5] has the same target. Nature of the assay: dot blot; antigen spotted on nitrocellulose, biotinylated biligand anchor in 0.1% serum, streptavidin-HRP.
Assay [6] has as its target human carbonic anhydrase II (hCAII) (human) (UniProt P00918). The assay is described as above.
For assay [7], the target named is Carbonic anhydrase II (bCAII), from bovine erythrocytes (bovine) (UniProt P00921). The assay can be described thus: SPR Biacore T100; bCAII immobilised on CM5, branched biligand as analyte 0-1656 nM.
Assay [8] has the same target. Nature of the assay: fluorescence polarization; 6 µM FITC-peptide titrated with bCAII 0.2-800 µM in PBS + 3% DMSO.
The target is the same in assay [9]. Nature of the assay: SPR.
Assay [10] has the same target. The assay can be described thus: SPR KD of the triligand against SPR KD of the biligand.
Assay [11] has as its target human carbonic anhydrase II (hCAII) (human) (UniProt P00918). The assay is described as above.
Assay [12] shares this target. The assay can be described thus: SPR Biacore T100; hCAII immobilised on CM5, triligand as analyte 0.1-162 nM, 1:1 fit.
The target of assay [13] is Carbonic anhydrase II (bCAII), from bovine erythrocytes (bovine) (UniProt P00921). Nature of the assay: SPR Biacore T100; bCAII immobilised on CM5, triligand as analyte 0.1-162 nM, 1:1 fit.

Sequence of Carbonic anhydrase II (bCAII), from bovine erythrocytes (bovine) (P00921 2-260 limits assumed): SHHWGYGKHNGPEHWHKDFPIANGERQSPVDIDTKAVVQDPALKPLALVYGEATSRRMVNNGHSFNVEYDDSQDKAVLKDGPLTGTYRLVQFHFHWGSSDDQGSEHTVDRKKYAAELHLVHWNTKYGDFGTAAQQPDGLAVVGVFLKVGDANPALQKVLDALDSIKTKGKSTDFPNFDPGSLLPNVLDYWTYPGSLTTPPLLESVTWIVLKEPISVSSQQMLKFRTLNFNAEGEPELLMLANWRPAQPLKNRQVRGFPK

Consider biligand kwlwGl-Tz1-kfwlkl (peptide), for which the Kd was determined as 1000 nM in assay [1] and 3000 nM in assay [2]. The substance also gave a fold improvement of dissociation constant over anchor ligand lklwfk-(D-Pra) in assay [3] of 150 fold.
For the substance biligand lklwfk-Tz1-kiwiG (peptide), the fold affinity enhancement over anchor ligand in assay [4] is 150 fold. Moreover, the values for the Kd in assay [1] and in [2] were 1000 nM and 11000 nM, respectively.
In the case of “biotinylated biligand anchor Biotin-(EG)5-(D-Pra)-kwlwGl-Tz1-kfwlkl (FIG. 14) (peptide)”, the fold reduction of dot blot sensitivity against the triligand in assay [5] and in [6] was 10 fold in each case.
Consider “branched biligand capture agent vkw(Tz1)fw-kfwlkl (peptide)”, for which, in assay [7], the dissociation constant (Kd) stood at 500 nM.
In the case of “fluoresceinated anchor ligand lklwfk-(D-Pra) (peptide)”, the Kd in assay [8] is 500000 nM.
“triligand rfviln-Tz2-kwlwGl-Tz1-kfwlkl (peptide)”: the Kd in assay [9] stood at 60 nM; in assay [12], 45 nM; in assay [13] it was 64 nM. For the same substance, the fold affinity enhancement over biligand in [10] and in assay [11] was 50 fold throughout.
